# Target: human CD44v6 (CD44 splice variant containing the domain v6) on antigen-positive FaDu cells (human) (UniProt P16070)
# Test: flow cytometry (FACS) on FaDu cells, FITC-labeled anti-human IgG detection, on ice
# UniProt P16070, sequence (P16070 21-742, change not shown): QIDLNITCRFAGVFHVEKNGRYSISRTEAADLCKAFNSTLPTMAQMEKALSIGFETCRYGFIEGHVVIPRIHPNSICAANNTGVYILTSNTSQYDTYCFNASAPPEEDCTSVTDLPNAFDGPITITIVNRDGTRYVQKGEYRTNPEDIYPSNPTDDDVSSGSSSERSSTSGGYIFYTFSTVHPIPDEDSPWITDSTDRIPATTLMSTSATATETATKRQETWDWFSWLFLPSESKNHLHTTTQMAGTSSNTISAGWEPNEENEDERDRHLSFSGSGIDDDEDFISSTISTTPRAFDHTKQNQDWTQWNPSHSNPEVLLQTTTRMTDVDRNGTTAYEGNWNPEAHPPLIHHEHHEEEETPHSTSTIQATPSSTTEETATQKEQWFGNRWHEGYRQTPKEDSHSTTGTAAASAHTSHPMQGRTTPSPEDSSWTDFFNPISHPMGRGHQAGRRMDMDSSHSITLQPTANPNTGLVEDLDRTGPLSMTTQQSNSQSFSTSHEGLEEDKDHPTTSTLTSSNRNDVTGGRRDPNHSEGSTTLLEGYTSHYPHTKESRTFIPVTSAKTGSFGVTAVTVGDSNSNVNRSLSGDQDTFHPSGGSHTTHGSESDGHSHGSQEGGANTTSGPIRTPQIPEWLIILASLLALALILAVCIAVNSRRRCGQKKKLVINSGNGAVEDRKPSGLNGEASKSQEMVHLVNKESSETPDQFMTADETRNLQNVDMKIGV
row,Kd [nM],Binder
1,1,"BIWA 4 (antibody, human IgG1, kappa, V domains shown) VH: EVQLVESGGGLVKPGGSLRLSCAASGFTFSSYDMSWVRQAPGKGLEWVSTISSGGSYTYYLDSIKGRFTISRDNAKNSLYLQMNSLRAEDTAVYYCARQGLDYWGRGTLVTVSS VL: EIVLTQSPATLSLSPGERATLSCSASSSINYIYWYQQKPGQAPRLLIYLTSNLASGVPARFSGSGSGTDFTLTISSLEPEDFAVYYCLQWSSNPLTFGGGTKVEIKR"
2,1.8,"BIWI 1 (antibody, human IgG1, kappa, V domains shown, maytansinoid DM1 linked by a disulfide bond through the SPP-derived thiopentanoate linker; DM1/MAb ratio 3.1 (average for the whole antibody); attachment residues not stated) VH: EVQLVESGGGLVKPGGSLRLSCAASGFTFSSYDMSWVRQAPGKGLEWVSTISSGGSYTYYLDSIKGRFTISRDNAKNSLYLQMNSLRAEDTAVYYCARQGLDYWGRGTLVTVSS VL: EIVLTQSPATLSLSPGERATLSCSASSSINYIYWYQQKPGQAPRLLIYLTSNLASGVPARFSGSGSGTDFTLTISSLEPEDFAVYYCLQWSSNPLTFGGGTKVEIKR"
